Experimental data from publication PMC4821178 (Insect Biochemistry and Molecular Biology, 2016).

Experiments:
[1] = molecular target: human nicotinic acetylcholine receptor α7 subunit with a three amino acid (IIC) deletion in TM4 (human) (UniProt P36544); test: radioligand binding
[2] = molecular target: T1, human nicotinic acetylcholine receptor α7 subunit, wild type (human, UniProt P36544 23-502); test: radioligand binding; details: one partner purified
T1 construct: also called Hα7; human α7 nAChR

“[3H]-α-bungarotoxin (from UniProt P60615 22-95) (natural protein)” was tested, and the EC50 [1] was 0.9 nM.

B1: [3H]-α-bungarotoxin (natural protein)
chain: IVCHTTATSPISAVTCPPGENLCYRKMWCDAFCSSRGKVVELGCAATCPSKKPYEEVTCCSTDKCNPHPKQRPG
Work on B1 yielded an EC50 [2] of 20 ± 5.8 nM.
